# According to the supplement of paper PMC10065799, “High-throughput profiling of sequence recognition by tyrosine kinases and SH2 domains using bacterial peptide display” (eLife, 2023):
# What was measured:
# c-Src SH2 = assay: SH2 binding enrichment of the phosphorylated peptide, bacterial display (enrichment ratio); higher = better substrate or ligand; peptides without Tyr show the background
# Grb2 SH2 = Grb2 SH2 (UniProt P62993); assay: as above
# SHP2-C SH2 = assay: as above
# Fyn = Fyn (UniProt P06241); assay: phosphorylation enrichment, bacterial display (enrichment ratio); higher = better substrate or ligand; peptides without Tyr show the background
# Hck = Hck (UniProt P08631); assay: as above
# Fer (mouse) = assay: as above
# c-Src = assay: as above
# MERTK = MERTK (UniProt Q12866); assay: as above
# FGFR3 = FGFR3 (UniProt P22607); assay: as above
# Jak2 = Jak2 (UniProt O60674); assay: as above
# EPHB2 = EPHB2 (UniProt P29323); assay: as above
# FGFR1 = FGFR1 (UniProt P11362); assay: as above
# Fes = Fes (UniProt P07332); assay: as above
# AncSZ = assay: as above
# EPHB1 = EPHB1 (UniProt P54762); assay: as above
# c-Abl (mouse) = assay: as above
# 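For SH2 binding enrichment of the phosphorylated peptide, bacterial display in this document: peptide library displayed on the E. coli surface as eCPX fusions, selected cells deep-sequenced, score is each peptide's frequency after selection divided by its frequency in the input.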
# 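For phosphorylation enrichment, bacterial display in this document: 11-residue human phosphosite peptides and single-mutation variants displayed on the E. coli surface, counted by deep sequencing, each peptide's frequency after selection divided by its frequency in the unselected input library; frequency after pTyr selection over input frequency; kinase dosed for 20-30% of maximal phosphorylation in three min.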
# Chain of Fes (P07332 whole entry, looked up): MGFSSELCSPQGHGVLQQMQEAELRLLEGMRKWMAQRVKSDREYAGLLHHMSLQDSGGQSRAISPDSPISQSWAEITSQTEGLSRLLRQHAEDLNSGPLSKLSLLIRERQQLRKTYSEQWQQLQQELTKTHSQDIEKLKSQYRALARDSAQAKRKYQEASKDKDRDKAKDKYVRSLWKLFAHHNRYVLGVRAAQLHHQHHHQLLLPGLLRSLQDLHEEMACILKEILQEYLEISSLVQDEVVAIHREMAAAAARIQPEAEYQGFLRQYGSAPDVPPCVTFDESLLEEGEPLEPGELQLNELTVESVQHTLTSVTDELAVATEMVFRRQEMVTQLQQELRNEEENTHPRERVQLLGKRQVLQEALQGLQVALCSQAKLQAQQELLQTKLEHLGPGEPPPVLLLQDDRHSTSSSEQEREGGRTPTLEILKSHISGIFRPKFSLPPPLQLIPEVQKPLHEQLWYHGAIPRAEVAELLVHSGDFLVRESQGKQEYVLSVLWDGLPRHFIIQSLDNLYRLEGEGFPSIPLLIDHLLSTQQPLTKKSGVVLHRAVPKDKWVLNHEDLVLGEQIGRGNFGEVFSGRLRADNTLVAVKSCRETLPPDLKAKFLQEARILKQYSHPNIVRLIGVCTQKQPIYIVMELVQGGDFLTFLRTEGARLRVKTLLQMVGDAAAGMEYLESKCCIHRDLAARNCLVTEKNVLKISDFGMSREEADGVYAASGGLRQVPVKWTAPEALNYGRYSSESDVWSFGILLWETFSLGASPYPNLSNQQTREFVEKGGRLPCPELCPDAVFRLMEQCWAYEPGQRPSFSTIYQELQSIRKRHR
# Chain of FGFR3 (P22607 whole entry, looked up): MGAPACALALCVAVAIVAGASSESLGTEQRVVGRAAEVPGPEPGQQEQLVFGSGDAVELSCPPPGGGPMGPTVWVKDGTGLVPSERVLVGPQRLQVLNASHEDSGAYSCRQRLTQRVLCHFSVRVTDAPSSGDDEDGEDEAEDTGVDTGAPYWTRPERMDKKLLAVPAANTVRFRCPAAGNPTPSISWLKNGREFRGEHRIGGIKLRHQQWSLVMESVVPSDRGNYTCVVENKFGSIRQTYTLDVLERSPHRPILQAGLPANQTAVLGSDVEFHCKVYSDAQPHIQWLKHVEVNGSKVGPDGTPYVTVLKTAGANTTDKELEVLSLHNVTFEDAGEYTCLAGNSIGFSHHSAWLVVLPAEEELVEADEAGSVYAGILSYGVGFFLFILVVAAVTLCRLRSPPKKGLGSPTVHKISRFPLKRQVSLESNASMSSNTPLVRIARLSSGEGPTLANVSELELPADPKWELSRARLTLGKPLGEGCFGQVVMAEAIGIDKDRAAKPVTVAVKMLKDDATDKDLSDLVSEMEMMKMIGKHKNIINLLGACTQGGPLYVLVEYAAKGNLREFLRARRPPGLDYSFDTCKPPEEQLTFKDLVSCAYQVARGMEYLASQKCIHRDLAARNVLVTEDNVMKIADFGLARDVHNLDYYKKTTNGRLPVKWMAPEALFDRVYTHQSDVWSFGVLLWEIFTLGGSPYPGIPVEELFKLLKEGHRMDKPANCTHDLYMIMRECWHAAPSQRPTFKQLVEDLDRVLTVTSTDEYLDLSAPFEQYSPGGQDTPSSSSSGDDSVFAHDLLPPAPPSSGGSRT
# Chain of EPHB2 (P29323 whole entry, looked up): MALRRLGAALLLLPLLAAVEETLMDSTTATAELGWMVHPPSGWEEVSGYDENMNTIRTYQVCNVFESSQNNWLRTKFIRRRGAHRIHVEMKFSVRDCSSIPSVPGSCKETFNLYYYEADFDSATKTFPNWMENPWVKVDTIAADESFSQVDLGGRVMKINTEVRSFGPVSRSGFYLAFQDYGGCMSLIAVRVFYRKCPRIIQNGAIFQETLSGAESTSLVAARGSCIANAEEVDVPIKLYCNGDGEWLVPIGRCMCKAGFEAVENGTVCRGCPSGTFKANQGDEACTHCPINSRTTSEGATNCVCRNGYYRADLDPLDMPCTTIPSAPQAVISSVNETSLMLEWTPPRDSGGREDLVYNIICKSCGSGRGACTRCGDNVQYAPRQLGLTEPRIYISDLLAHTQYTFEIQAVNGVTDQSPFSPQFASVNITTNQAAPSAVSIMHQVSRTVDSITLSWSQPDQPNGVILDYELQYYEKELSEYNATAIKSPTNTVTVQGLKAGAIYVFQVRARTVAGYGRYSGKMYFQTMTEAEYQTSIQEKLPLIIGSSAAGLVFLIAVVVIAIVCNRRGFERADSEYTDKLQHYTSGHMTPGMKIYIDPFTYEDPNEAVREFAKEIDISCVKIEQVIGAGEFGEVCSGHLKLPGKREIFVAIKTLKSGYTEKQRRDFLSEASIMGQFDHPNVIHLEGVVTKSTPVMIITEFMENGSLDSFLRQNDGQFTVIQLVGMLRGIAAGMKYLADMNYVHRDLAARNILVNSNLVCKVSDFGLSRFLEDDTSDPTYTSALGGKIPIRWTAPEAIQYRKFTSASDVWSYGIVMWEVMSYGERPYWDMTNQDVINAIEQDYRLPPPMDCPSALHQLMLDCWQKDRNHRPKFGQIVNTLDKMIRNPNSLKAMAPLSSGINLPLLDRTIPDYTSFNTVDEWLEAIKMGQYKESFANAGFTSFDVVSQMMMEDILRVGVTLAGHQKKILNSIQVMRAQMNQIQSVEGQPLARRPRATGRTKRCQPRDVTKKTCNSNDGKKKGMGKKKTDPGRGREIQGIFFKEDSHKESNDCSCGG
# Chain of Hck (P08631 whole entry, looked up): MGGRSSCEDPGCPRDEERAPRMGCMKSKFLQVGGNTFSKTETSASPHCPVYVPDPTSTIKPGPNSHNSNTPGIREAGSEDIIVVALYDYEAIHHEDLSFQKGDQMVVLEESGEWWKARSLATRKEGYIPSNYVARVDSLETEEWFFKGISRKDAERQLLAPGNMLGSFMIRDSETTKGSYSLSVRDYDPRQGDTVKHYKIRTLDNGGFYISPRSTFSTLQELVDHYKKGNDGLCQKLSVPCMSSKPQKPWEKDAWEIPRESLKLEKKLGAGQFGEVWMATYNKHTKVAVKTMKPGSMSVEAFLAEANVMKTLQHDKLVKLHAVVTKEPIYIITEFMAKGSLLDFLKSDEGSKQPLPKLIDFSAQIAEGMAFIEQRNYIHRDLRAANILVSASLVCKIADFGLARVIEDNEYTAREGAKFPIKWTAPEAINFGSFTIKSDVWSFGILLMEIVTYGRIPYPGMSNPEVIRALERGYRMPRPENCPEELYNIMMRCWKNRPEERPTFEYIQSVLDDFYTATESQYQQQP
# Chain of Jak2 (O60674 whole entry, looked up): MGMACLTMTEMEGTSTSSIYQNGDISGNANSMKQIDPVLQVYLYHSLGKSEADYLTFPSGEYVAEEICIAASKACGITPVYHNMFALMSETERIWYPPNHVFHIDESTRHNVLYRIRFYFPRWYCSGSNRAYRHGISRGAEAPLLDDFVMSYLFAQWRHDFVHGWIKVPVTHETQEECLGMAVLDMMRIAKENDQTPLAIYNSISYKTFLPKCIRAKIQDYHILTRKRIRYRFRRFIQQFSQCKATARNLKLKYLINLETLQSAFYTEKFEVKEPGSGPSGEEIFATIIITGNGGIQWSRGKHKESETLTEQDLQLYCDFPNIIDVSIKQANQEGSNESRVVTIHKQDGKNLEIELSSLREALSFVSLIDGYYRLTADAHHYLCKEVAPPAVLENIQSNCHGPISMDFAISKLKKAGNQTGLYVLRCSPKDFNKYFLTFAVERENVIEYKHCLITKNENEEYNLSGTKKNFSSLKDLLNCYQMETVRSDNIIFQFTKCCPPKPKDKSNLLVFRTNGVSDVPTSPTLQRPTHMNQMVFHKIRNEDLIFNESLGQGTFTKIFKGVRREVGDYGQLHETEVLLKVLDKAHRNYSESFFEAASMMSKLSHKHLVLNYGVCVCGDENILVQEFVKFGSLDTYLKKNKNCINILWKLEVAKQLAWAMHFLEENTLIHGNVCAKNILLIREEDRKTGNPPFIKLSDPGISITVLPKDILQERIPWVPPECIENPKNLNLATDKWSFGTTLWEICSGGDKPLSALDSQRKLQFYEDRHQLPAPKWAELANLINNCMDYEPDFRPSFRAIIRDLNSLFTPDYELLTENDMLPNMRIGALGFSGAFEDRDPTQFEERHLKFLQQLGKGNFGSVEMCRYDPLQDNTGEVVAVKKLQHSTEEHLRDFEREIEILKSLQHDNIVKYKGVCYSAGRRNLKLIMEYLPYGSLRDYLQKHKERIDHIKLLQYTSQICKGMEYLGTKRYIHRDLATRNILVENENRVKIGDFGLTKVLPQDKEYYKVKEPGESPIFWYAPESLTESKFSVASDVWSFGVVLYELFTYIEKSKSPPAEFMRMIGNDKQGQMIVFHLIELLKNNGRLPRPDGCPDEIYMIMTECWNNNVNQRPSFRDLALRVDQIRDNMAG
# Chain of Fyn (P06241 whole entry, looked up): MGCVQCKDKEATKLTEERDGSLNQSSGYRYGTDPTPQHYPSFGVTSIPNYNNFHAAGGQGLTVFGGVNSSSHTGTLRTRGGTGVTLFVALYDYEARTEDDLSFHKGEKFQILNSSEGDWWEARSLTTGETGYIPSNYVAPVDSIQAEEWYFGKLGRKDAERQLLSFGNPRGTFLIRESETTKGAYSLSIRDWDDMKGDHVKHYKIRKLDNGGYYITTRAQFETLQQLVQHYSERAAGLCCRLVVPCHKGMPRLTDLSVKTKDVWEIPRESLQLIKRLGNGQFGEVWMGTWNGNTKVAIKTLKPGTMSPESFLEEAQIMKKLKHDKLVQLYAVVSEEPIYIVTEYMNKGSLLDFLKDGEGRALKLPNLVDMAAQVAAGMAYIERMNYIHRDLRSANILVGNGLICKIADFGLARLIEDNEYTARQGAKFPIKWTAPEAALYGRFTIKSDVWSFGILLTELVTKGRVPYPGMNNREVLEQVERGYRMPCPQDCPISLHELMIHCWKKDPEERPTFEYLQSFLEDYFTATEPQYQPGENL
Sequence,SH2 binding enrichment (c-Src SH2),SH2 binding enrichment (Grb2 SH2),SH2 binding enrichment (SHP2-C SH2),phosphorylation enrichment (Fyn),phosphorylation enrichment (Hck),phosphorylation enrichment (Fer (mouse)),phosphorylation enrichment (c-Src),phosphorylation enrichment (MERTK),phosphorylation enrichment (FGFR3),phosphorylation enrichment (Jak2),phosphorylation enrichment (EPHB2),phosphorylation enrichment (FGFR1),phosphorylation enrichment (Fes),phosphorylation enrichment (AncSZ),phosphorylation enrichment (EPHB1),phosphorylation enrichment (c-Abl (mouse))
EAAFVYAISSA [WNT4_Y113],0.568,0.684,0.745,1.9,1.38,0.649,2.79,0.566,0.749,1.36,0.59,0.586,1.3,1.34,0.623,2.7
EEQKKYYNAMK [SCN5A_Y1494],0.639,1.25,0.603,0.458,0.392,0.377,0.384,0.355,0.535,0.674,0.492,0.509,0.771,0.67,0.451,0.525
EEVPLYESATT [DCC_Y809_G805E],0.457,0.8,0.574,1.07,1.49,6.01,1.09,0.601,0.878,1.27,2.66,0.487,1.32,1.5,2.19,1.04
EGLRRYLENGK [HLA-A_Y195_W191G],0.405,0.584,0.615,0.397,0.398,0.291,0.336,0.52,0.427,0.6,0.323,0.315,0.473,0.463,0.346,0.419
EHFSFYGMKAV [SLC15A2_Y61_R57H_YF],0.41,0.795,0.629,0.473,0.846,0.48,0.579,0.417,0.615,0.901,0.601,0.441,1.04,0.868,0.498,0.624
EILLSYPRTGY [TGM1_Y365_L366P],0.58,0.929,0.699,0.418,0.371,0.49,0.448,0.379,0.47,0.867,0.456,0.445,0.789,0.626,0.397,0.658
EKKKYYDAKIE [CASP5_Y104_T106A],0.522,1.07,0.668,0.588,0.449,0.475,0.64,0.473,0.781,0.912,0.326,0.526,0.978,0.777,0.679,0.609
EKNANYKEGTF [CLRN1_Y171_I168N_YF],0.503,0.944,0.874,0.452,0.381,0.397,0.389,0.425,0.46,0.635,0.445,0.401,0.757,0.715,0.346,0.647
EKQVAYCPSGR [ROS1_Y2323_K2328R],0.631,1.01,0.59,0.569,0.501,0.675,0.782,0.667,0.705,1.27,0.615,0.531,1.18,2.05,0.511,1.06
ELAVNYQEQAS [SLC9A9_Y591_I589V],0.563,0.964,0.678,0.534,0.559,0.519,0.496,0.435,0.883,0.829,0.694,0.605,1.06,0.96,0.563,0.66

# Now from value to sequence, other results behind:
SH2 binding enrichment (c-Src SH2),SH2 binding enrichment (Grb2 SH2),SH2 binding enrichment (SHP2-C SH2),Sequence,phosphorylation enrichment (Fyn),phosphorylation enrichment (Hck),phosphorylation enrichment (Fer (mouse)),phosphorylation enrichment (c-Src),phosphorylation enrichment (MERTK),phosphorylation enrichment (FGFR3),phosphorylation enrichment (Jak2),phosphorylation enrichment (EPHB2),phosphorylation enrichment (FGFR1),phosphorylation enrichment (Fes),phosphorylation enrichment (AncSZ),phosphorylation enrichment (EPHB1),phosphorylation enrichment (c-Abl (mouse))
0.614,0.921,0.748,EDSEYYKAFEE [CASQ2_Y179],0.425,0.508,0.487,0.547,0.372,0.742,1.11,0.489,0.51,1.34,1.37,0.526,0.793
0.462,0.821,0.698,EEKKKYFDTKI [CASP5_Y103_YF],0.374,0.559,0.457,0.402,0.332,0.519,0.665,0.445,0.447,0.954,0.928,0.429,0.657
0.376,0.879,0.611,EFGSGYPNDPK [RNASEH2A_Y210_D205E_YF],0.441,0.503,0.41,0.539,0.653,0.594,0.797,0.51,0.406,0.875,0.884,0.562,0.79
0.432,0.677,0.513,EGELRYMHSRV [ABCD1_Y281_K276E],0.507,0.34,0.395,0.373,0.35,0.485,0.86,0.439,0.428,0.689,0.688,0.516,0.519
0.524,0.92,0.444,EKMWTYMPSAE [GRIA4_Y695_R697P],0.377,0.509,0.396,0.329,0.363,0.623,0.652,0.474,0.448,0.841,0.768,0.504,0.538
0.783,0.673,0.597,ELANLYHHVCM [BICD2_Y538],0.869,2.17,1.77,1.47,1.24,1.49,1.23,0.708,1.57,1.05,1.17,0.666,0.982
